{"source": "patent US20050164163A1", "about": "(MEDICAL RESEARCH COUNCIL, published 2005)", "binders": {"B1": {"name": "Peptide 7 (Table 2), UL8 amino acids 719-738 (peptide)", "peptide": "IELVFTGVLAGVWGEGGKFV", "notes": "Synthetic 20-residue peptide from HSV-1 UL8"}, "B2": {"name": "HCMV UL102 protein (other)", "chain": "MTAQPPLHHRHHPYTLFGTSCHLSWYGLLEASVPIVQCLFLDLGGGRAEPRLHTFVVRGDRLPPAEVRAVHRASYAALASAVTTDADERRRGLEQRSAVLARVLLEGSALIRVLARTFTPVQIQTDASGVEILEAAPALGVETAALSNALSLFHVAKLVVIGSYPEVHEPRVVTHTAERVSEEYGTHAHKKLRRGYYAYDLAMSFRVGTHKYVLERDDEAVLARLFEVREVCFLRTCLRLVTPVGFVAVAVTDEQCCLLLQSAWTHLYDVLFRGFAGQPPLRDYLGPDLFETGAARSFFFPGFPPVPVYAVHGLHTLMRETALDAAAEVLSWCGLPDIVGSAGKLEVEPCALSLGVPEDEWQVFGTEAGGGAVRLNATAFRERPAGGDRRWLLPPLPRDDGDGENNVVEVSSSTGGAHPPSDDATFTVHVRDATLHRVLIVDLVERVLAKCVRARDFNPYVRYSHRLHTYAVCEKFIENLRFRSRRAFWQIQSLLGYISEHVTSACASAGLLWVLSRGHREFYVYDGYSGHGPVSAEVCVRTVVDCYWRKLFGGDDPGPTCRVQESAPGVLLVWGDERLVGPFNFFYGNGGAGGSPLHGVVGGFAAGHCGGACCAGCVVTHRHSSGGGGSGVGDADHASGGGLDAAAGSGHNGGSDRVSPSTPPAALGGCCCAAGGDWLSAVGHVLGRLPALLRERVSVSELEAVYREILFRFVARRNDVDFWLLRFQPGENEVRPHAGVIDCAPFHGVWAEQGQIIVQSRDTALAADIGYGVYVDKAFAMLTACVEVWARELLSSSTASTTACSSSSVLSSALPSVTSSSSGTATVSPPSCSSSSATWLEERDEWVRSLAVDAQHAAKRVASEGLRFFRLNA", "notes": "mature; Purified from Sf cells infected with AcUL102; The 873-residue form follows Smith and Pari (1995)"}, "B3": {"name": "Peptide 5 (Table 2), UL8 residues 722-750 (peptide)", "peptide": "VFTGVLAGVWGEGGKFVYPFDDKMSFLFA", "notes": "Synthetic peptide, C-terminal 29 amino acids of HSV-1 UL8"}}, "key": {"[1]": {"biological_target": "T1, HSV-1 POL (UL30 protein, catalytic subunit of the HSV-1 DNA polymerase) (HSV-1, UniProt P04293 1-1235)", "T1 construct": "mature; Purified from Sf cells infected with baculovirus AcUL30", "T1 sequence (looked up)": "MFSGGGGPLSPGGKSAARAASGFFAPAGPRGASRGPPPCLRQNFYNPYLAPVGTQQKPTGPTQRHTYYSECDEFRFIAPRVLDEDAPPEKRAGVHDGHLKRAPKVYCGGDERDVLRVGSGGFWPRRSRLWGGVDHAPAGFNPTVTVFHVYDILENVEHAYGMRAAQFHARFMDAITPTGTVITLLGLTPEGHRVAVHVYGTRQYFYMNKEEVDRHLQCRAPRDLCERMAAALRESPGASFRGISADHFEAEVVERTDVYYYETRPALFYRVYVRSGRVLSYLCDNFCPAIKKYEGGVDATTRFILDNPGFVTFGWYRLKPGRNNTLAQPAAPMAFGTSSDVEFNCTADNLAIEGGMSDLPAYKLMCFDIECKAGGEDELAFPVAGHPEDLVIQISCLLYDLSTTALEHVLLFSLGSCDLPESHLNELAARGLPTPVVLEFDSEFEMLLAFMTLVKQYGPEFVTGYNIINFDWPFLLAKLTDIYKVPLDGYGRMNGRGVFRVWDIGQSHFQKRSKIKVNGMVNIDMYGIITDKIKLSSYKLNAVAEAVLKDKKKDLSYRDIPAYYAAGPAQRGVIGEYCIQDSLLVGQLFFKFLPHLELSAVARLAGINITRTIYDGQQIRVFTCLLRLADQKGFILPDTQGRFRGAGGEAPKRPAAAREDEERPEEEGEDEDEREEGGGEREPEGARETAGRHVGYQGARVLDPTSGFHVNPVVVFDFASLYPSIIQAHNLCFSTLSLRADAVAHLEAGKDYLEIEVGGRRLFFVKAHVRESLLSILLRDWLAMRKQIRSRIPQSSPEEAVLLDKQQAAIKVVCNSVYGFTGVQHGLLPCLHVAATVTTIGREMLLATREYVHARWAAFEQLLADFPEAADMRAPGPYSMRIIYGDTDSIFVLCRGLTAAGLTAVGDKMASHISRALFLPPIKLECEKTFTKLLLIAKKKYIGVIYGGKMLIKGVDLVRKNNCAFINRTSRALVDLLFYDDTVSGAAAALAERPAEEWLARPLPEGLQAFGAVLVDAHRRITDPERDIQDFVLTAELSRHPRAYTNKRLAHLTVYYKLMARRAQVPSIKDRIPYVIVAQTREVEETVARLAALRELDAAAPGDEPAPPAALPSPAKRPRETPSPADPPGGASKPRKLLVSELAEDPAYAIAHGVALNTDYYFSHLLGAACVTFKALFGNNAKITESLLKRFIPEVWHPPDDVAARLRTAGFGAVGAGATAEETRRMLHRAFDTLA", "assay": "competition ELISA: peptide incubated with POL, then added to UL8-coated wells; average of independent experiments"}, "[2]": {"biological_target": "T1, HSV-1 POL (UL30 protein, catalytic …)", "assay": "competition ELISA of FIG. 7: peptide incubated with POL 15 min, then added to UL8-coated wells"}, "[3]": {"biological_target": "T2, HCMV UL54 protein (HCMV DNA polymerase) (HCMV strain AD169, UniProt P08546 1-1242)", "T2 construct": "mature; Purified from Sf cells infected with AcUL54", "T2 sequence": "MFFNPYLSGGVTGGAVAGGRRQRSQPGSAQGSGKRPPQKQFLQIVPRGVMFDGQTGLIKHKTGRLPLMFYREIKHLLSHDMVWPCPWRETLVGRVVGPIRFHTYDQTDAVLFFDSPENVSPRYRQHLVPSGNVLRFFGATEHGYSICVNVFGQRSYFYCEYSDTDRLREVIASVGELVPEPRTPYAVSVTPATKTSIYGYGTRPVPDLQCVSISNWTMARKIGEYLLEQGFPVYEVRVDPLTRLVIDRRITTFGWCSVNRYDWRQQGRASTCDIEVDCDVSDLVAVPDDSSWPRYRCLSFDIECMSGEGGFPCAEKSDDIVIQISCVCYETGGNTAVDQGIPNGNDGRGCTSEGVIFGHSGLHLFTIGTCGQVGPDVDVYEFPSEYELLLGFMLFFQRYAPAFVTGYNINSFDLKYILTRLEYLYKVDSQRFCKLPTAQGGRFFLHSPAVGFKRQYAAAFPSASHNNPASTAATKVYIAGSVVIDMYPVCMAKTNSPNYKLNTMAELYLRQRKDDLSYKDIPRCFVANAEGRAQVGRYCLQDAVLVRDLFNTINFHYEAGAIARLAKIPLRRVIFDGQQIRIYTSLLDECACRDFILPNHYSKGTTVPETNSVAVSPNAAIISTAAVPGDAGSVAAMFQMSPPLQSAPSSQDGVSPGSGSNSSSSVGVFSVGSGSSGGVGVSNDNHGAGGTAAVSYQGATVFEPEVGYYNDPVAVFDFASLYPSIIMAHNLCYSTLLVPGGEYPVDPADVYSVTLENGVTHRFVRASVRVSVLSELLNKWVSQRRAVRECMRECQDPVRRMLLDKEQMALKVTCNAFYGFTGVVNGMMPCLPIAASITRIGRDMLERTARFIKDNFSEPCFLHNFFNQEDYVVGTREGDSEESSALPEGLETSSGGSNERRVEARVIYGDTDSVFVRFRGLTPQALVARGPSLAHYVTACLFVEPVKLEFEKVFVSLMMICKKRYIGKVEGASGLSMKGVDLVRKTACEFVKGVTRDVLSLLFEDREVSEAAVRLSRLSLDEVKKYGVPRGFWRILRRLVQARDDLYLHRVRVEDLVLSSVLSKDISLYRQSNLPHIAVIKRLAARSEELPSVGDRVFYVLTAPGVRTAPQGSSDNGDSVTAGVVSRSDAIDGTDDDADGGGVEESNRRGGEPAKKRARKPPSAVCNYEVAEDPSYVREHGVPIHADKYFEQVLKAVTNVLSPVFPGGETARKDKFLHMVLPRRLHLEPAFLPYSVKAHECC", "assay": "ELISA, UL102 coated (0 to 0.4 µg), UL54 added (0 to 0.6 µg), detected with antiserum 144"}, "[4]": {"biological_target": "T1, HSV-1 POL (UL30 protein, catalytic …)", "assay": "competition ELISA: peptide incubated with POL 15 min, then added to UL8-coated wells"}}, "data": [{"binder": "B1", "values": [{"measurement": "IC50", "setting": "[1]", "result": 2250, "unit": "nM"}, {"measurement": "IC50", "setting": "[2]", "result": "~1000", "unit": "nM"}]}, {"binder": "B2", "values": [{"measurement": "binding result", "setting": "[3]", "result": "binds"}]}, {"binder": "B3", "values": [{"measurement": "binding result", "setting": "[4]", "result": "binds"}]}]}
